This data set concerns C=C(OP(=O)(O)O)C(=O)O. Briefly: purified protein, by the assay type. The conditions noted are these: other: C. crescentus EPSPS, 50 mM K+-HEPES pH 7.0, 1 mM shikimate-3-phosphate, varying [14C]PEP.

The Km is the substrate concentration at which the rate is half of its maximum. Take “Caulobacter crescentus EPSPS, native, SEQ ID NO: 9 (Caulobacter vibrioides CB15)”: the Km worked out at 2.0 µM.
